assay: yeast display, Sf9 membrane polyspecificity reagent, FACS + sequencing; frameworks hold sequencing errors
Method in brief: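 Using colony PCR, genes from sorted yeast display clones were amplified, then sequenced on MiSeq at 2 × 250 and filtered by CDR length. The clones had been stained with 10% biotinylated, detergent-solubilized Sf9 membrane reagent for 1 hour at 4 °C and sorted by FACS into low and high (top ~1%) gates on anti-HA and streptavidin fluorescence. Polyreactivity labels come from the gate of origin.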

| Sequence | polyreactivity (PSR sort gate) |
| --- | --- |
| QVQLVESGGGLVQAGGSLRLSCAASGSIFVNYAMGWYRQAPGKERELVAAITDGGRTYYADSVKGRFTISRDNAKNTVYLQMNSLKPEDTAVYYCAVDGIRYWGSRDESGYDYWGQGTQVTVSS | low polyreactivity |
| QVQLVESGGGLVQAGGSLRLSCAASGSIFVPNAMGRYRQAPGKERELVAAITSGGSTYYADSVKGRFTISRDNAKNTVYLQMNSLKPEDTAVYYCAADIGSQYFGHYDYWGQGTQVTVSS | high polyreactivity |
| QVQLVESGGGLVQAGGSLRLSCAASGSIFVPYAMGWYRQAPGKERELVAAISYSGGTTYADSVKGRFTISRDNAKNTVYLQMNRVKPEDTAVYYCAARYWRRWRQSVSLDYWGQGSQVTVSS | high polyreactivity |
| QVQLVESGGGLVQAGGSLRLSCAASGSIFVPYAMGWYRQAPGKERELVAAITRSSGSTYYADSVKGRFTISRDNAKNTVYLQMNSLKPEDTAVYYCAADFLLEFDYWGQGTQVTVSS | low polyreactivity |
| QVQLVESGGGLVQAGGSLRLSCAASGSIFVPYAMGWYRQAPWKERELVAAISRGGDTNYADSVKGRFTISRDKAKNTVYLQMNSLIPEDTAVSYCNRARHQYSRWHGGYYYWGQCTQVTVSS | low polyreactivity |
| QVQLVESGGGLVQAGGSLRLSCAASGSIFVPYAMGWYRQEPGKERELVAAISRRGGRTNYADSVKGRFTISRDNAKNTVYLQMNSLKPEDTAVYYCADGWRGVYYTRYDSWGQGTQVTVSS | high polyreactivity |
| QVQLVESGGGLVQAGGSLRLSCAASGSIFVPYARGWYRQAPGKERELVAAISNGDSTYYADSVKGRFTISRDNAKNTVYLQMNSLKPEDTAVYYCAADAVKASVSYIVPYAAYDYWGQGTQVTVSS | low polyreactivity |
| QVQLVESGGGLVQAGGSLRLSCAASGSIFVPYDMGWYRQAPGKERELVAVISTDDGTYYADSVKGRFTISRDNAKNTVYLQMNSLKPEDTAVYYCAADRWYREYDYWGQGTQVTVSS | low polyreactivity |
| QVQLVESGGGLVQAGGSLRLSCAASGSIFVQYAMGWCRQAPGKDRELVAAISDSGGSTYYADSVKGRFTISRDNAKNTVYVQMNSLKPEDTAVYYCAAVSTNSYSHRFGWGQGTQVTVSS | low polyreactivity |
| QVQLVESGGGLVQAGGSLRLSCAASGSIFVRNAMGWYRQAPGKERELVAAISGSGGRTYYADSVKGRFTISRDIAKNTVYLQMNSLKPEDTAVYYCARVPSGQLEYDYWGQGTQVTVSS | high polyreactivity |
| QVQLVESGGGLVQAGGSLRLSCAASGSIFVRNGMGWYRQAPGKERELVASITSGTITYYADSVKGRFTISRDNAKNTVYLQMNSLKPEDTAVYYCAAYQYPADFKLYYYWGQGTQVTVSS | high polyreactivity |
| QVQLVESGGGLVQAGGSLRLSCAASGSIFVSEYVMGWYRQAPGKERELVARIRWSSGSTYYADSVKGRFTISRDNAKNTVYLQMNSLKPEDTAVYYCAKATSSFYHYRYDYWGQGTQVTVSS | low polyreactivity |
| QVQLVESGGGLVQAGGSLRLSCAASGSIFVSEYVMGWYRQAPGKERELVARIRWSSGSTYYADSVKGRFTISRDNAKNTVYLQMNSLKPEDTAVYYCNKDYYYVIGWTYHRSYHYDYWGQGTQVTVSS | low polyreactivity |
| QVQLVESGGGLVQAGGSLRLSCAASGSIFVSYAMGWYRQAPGKDRELVAAITSAGTTYYADSVKGRFTISRDNAKNTVYLQMNSLNPEDTAVYYCNTDASFKRTRVSPETEYGYWGQGTQVTVSS | low polyreactivity |
| QVQLVESGGGLVQAGGSLRLSCAASGSIFVSYAMGWYRQAPGKERELVAAITRGGSTNYADSVKGRFTISRDNAKNTVYLQMNSLKPEDTAVYYCAAAYRRGGPPLDYWGQGTQVTVSS | low polyreactivity |
| QVQLVESGGGLVQAGGSLRLSCAASGSIFVSYAMGWYRQAPGKERELVAAITSAGTTYYADSVKGRFTISRDNAKNTVYLQMNSLKQEDTAVYYCNTDASFKRTRVSPETEYGYWGQGTQVTVSS | low polyreactivity |

| Sequence | polyreactivity (PSR sort gate) |
| --- | --- |
| QVQLVESGGGLVQAGGSLRLSCAASGSIFVSYAMGWYRQAPGKERELVAAITVSGGSTYYADSVKGRFTISRDNAKNTVYLQMNSLKPEDTAVYYCAADSWDDWVVEFYYWGQGTQVTVSS | low polyreactivity |
| QVQLVESGGGLVQAGGSLRLSCAASGSIFVSYAMGWYRQAPGKERELVAAITVSGGSTYYADSVKGRFTISRDNAKNTVYLQMNSMKPEDTAVYYCAADSWDDWVVEFYYWGQGTQVTVSS | low polyreactivity |
| QVQLVESGGGLVQAGGSLRLSCAASGSIFVTNAMAWYSQAPGKERELVAAISWRGGSTYYADSVKGRFTISRDNAKNTVYLQMNSLKPEDTAVYYCNTYHPYWGSGFDYWGQGTEVTVSS | low polyreactivity |
| QVQLVESGGGLVQAGGSLRLSCAASGSIFVTNAMGWYRQAPGKERELVAAISGGADSTYADSVKGRFTISRDNAKNTVYFQMNSLKPEDTAVYYCAAKVRGWHYYYWGQGTQVTVSS | low polyreactivity |
| QVQLVESGGGLVQAGGSLRLSCAASGSIFVTNAMGWYRQAPGKERELVAAISGGADSTYADSVKGRFTISRDNAKNTVYLQMNSLKPEDTAVYYCAAKVRGWHYYYCGQGTQVTVSS | low polyreactivity |
| QVQLVESGGGLVQAGGSLRLSCAASGSIFVTNAMGWYRQAPGKERELVAAISVSGGSTYYADSVKGRFTISRDKAKNTVYLQMNSLKPEDTAVYYCNTVRSPPGHDYWGLGTQVTVSS | low polyreactivity |
| QVQLVESGGGLVQAGGSLRLSCAASGSIFVTYAMGWYRQAPGKERELVAAINYSGGSTYYADSVKGRFTISRDNAKNTVYLQMNSVKPEDTAVYYCAATTRYYSYGYWGQGTQVTVSS | low polyreactivity |
| QVQLVESGGGLVQAGGSLRLSCAASGSIFVTYAMGWYRQAPGKERELVASITLSGGSTYYADSVKGRFTISRDNAKNTVYFQKNSLKPEDTEVYYCNAEGTSWTSTRFDYWGQGTQVTVSS | high polyreactivity |
| QVQLVESGGGLVQAGGSLRLSCAASGSIFVVNAMGWYRQAPGKERELVAAIRLSGGSTYYADSVKGRFTISRDNAKNTVYLQMNSLKPEDTAVYDCAARYRELRTEYYYWGQGTQVTVSS | high polyreactivity |
| QVQLVESGGGLVQAGGSLRLSCAASGSIFVVYAMGWSREGPGKERELVAAISWGIGSTYYADSVKGRFTISRDNAKNTVYLQPNSLKPEDTAVYYCAADTDIVLYDYWGQGTQVTVSS | low polyreactivity |
| QVQLVESGGGLVQAGGSLRLSCAASGSIFVWYDLGWSRQAPGKERELVATISLSGVSTYYADSVKGRFTISRDTAKNTVYLQMISLKPEDTAVYYCAADFVEQGVDDFWGQGSQVTVSS | low polyreactivity |
| QVQLVESGGGLVQAGGSLRLSCAASGSIFVYNAMGWYRKATGKERELVAGITFIGGSTYYADSVKGRFTISRDNAKNTVYLQMNSLKPEDTAVYYCNADVAPGIFYGYDSWGQGTQVTVSS | low polyreactivity |
| QVQLVESGGGLVQAGGSLRLSCAASGSIFVYNAMGWYRQAPGKEREFVAAISWSVGRTYYADSVKGRFTFSRDNEKNTVYLQMNSLKPEDNAVYYCNAEFVAWYYYEEHDGDYWGQGTQVTVSS | high polyreactivity |
| QVQLVESGGGLVQAGGSLRLSCAASGSIFVYNAMGWYRQAPGKERELVAAIDTVGSTNYADSVKGRFTISRDNAKNTVYLQMNSLNPEDSAVYYCAVVTPYWSFYEQVIPSNYWGQGTQVSVSS | low polyreactivity |
| QVQLVESGGGLVQAGGSLRLSCAASGSIFVYNAMGWYRQAPGKERELVAAISSTGGSTYYADSVKGRFTISRDNAKNTVYLQMNSLKPEDTAVYYCARQGRYTRGDYWGQGTQVTVSS | high polyreactivity |
| QVQLVESGGGLVQAGGSLRLSCAASGSIFVYNAMGWYRQAPGKERELVARITGRGGRTYYADSVKGRFTISRDNAKNTVYLQMNSLKPEDTAVYYCAAAKYGDYRGSPYKYGYWGQGTQVTVSS | high polyreactivity |

Source: the nanobody polyreactivity screen of Harvey et al. (2022)
